Test results reported in IntAct's records for PubMed 18715871.

B1: Serine/threonine-protein phosphatase 4 regulatory subunit 4 (Homo sapiens), Q6NUP7 (parent)
chain: MHPPPPAAAMDFSQNSLFGYMEDLQELTIIERPVRRSLKTPEEIERLTVDEDLSDIERAVYLLSAGQDVQGTSVIANLPFLMRQNPTETLRRVLPKVREALHVAGVEMQLTAAMSFLTILQDESVSIHAYTHSFLQVILLHLEHRDTGVSNAWLETLLSVIEVLPKETLRHEILNPLVSKAQLSQTVQSRLVSCKILGKLTNKFDAHTIKREILPLVKSLCQDVEYEVRSCMCRQLENIAQGIGTELTKSVVLPELIELSRDEGSSVRLAAFETLVNLLDIFDTDDRSQTILPLVKSFCEKSFKADESILISLSFHLGKLCHGLYGIFTPDQHLRFLEFYKKLCTLGLQQENGHNENQIPPQILEQEKKYISVRKNCAYNFPAMIVFVDPKNFHMELYSTFFCLCHDPEVPVRYTIAICFYEVSKLLNSGVYLIHKELITLLQDESLEVLDALIDHLPEILELMSTGGESSVQENKLSSLPDLIPALTAAEQRAAASLKWRTHEKLLQKYACLPHVISSDQIYYRFLQRMFTIMMTNNVLPVQKAASRTLCIFLRYNRKQEQRHEVIQKLIEQLGQGKSYWNRLRFLDTCEFIIEIFSKSFFCKYFFLPAIELTHDPVANVRMKLCYLLPKVKSTLKIPADKHLLQQLEMCVRKLLCQEKDKDVLAIVKRTVLELDRMEMSMDAFQKKFYEKDLLDQEKEREELLLLEMEQLEKEKQQNDGRPMSDKMFEKKRRDTKTPTQSLPKNIPISVPGPSSVTPSTSKEIKKSKLIRSQSFNNQAFHAKYGNLEKCASKSSTTGYTTSVSGLGKTSVLSLADDSFRTRNASSVPSSFSPNTPLPSTSRGTGNSVDPKSSGSKDTQPRKATLKSRKSNP
partner: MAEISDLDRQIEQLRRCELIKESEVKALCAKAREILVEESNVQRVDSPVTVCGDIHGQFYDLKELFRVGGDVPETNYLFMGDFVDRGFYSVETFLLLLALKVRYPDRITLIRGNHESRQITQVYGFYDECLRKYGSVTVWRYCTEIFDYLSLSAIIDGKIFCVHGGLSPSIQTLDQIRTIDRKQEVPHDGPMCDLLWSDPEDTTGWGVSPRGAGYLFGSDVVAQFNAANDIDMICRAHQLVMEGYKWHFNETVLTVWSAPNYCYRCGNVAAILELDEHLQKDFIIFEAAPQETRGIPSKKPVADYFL
B2: Serine/threonine-protein phosphatase 4 catalytic subunit (Homo sapiens), P60510 (parent)
chain: B1 partner
partner: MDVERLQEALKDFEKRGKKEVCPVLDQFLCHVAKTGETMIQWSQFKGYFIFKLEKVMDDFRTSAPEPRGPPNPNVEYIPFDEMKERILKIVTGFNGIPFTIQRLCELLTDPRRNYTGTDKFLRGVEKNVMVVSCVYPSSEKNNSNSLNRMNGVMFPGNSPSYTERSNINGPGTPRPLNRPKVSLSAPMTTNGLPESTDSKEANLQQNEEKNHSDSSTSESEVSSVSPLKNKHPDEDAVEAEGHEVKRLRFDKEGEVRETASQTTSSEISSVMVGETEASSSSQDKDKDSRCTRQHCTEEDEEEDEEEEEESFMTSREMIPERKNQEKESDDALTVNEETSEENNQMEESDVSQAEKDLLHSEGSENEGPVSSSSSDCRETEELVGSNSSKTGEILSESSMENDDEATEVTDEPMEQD
B3: Serine/threonine-protein phosphatase 4 catalytic subunit (Homo sapiens), P60510 (parent)
chain: B1 partner
partner: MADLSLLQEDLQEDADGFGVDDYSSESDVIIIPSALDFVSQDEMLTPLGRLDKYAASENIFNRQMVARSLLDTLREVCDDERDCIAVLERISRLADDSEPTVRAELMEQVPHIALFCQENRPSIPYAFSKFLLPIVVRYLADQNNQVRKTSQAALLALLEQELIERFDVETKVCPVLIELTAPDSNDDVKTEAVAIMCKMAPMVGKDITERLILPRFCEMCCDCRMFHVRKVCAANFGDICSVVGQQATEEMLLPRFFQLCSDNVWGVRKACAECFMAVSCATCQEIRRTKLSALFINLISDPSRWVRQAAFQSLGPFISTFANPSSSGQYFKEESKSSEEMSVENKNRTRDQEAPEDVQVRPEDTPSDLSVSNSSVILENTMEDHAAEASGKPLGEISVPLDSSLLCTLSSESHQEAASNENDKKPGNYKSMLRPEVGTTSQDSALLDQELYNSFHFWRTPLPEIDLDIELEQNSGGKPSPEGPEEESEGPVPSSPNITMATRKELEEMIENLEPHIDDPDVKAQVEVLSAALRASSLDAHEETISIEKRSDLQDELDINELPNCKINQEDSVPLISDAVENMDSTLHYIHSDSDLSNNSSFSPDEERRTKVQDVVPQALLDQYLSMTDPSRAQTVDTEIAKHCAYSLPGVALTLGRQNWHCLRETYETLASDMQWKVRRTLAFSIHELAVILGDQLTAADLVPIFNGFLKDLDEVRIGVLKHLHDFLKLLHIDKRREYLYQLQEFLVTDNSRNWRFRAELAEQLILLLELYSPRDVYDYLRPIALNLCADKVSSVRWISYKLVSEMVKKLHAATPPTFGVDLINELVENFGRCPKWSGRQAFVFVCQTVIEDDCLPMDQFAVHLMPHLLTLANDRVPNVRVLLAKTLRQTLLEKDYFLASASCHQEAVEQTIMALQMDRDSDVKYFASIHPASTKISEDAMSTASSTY
B4: Serine/threonine-protein phosphatase 4 catalytic subunit (Homo sapiens), P60510 (parent)
chain: B1 partner
partner: B1 chain

Variants of: B1
Settings: with pp4c_human PPP4C

Variant | effect of a mutation on the interaction
V618D | disrupting interaction
V618A | disrupting interaction
R501D | disrupting interaction

Variants of: B2
Settings: with pp4r2_human PPP4R2, Q9NY27

Variant | effect of a mutation on the interaction
N76D | disrupting interaction
R107E | disrupting interaction
E277K | decreasing interaction
E39K | disrupting interaction

Variants of: B3
Settings: with pp4r1_human PPP4R1, Q8TF05

Variant | effect of a mutation on the interaction
E277K | decreasing interaction
N76D | disrupting interaction
R107E | disrupting interaction
E64K | disrupting interaction
E39K | disrupting interaction

Variants of: B4
Settings: with pp4r4_human PPP4R4, Q6NUP7

Variant | effect of a mutation on the interaction
E277K | disrupting interaction
E39K | decreasing interaction
N76D | decreasing interaction
E64K | disrupting interaction
R107E | decreasing interaction
